Test results published in paper PMC9482650, “Quantitative fragmentomics allow affinity mapping of interactomes” (Nature Communications, 2022).

B1: CLDN2, P57739 (peptide)
chain: FNSYSLTGYV
B2: SDC4, P31431 (peptide)
chain: KKAPTNEFYA
B3: DACT1, Q9NYF0 (peptide)
chain: SGSLKLMTTV
B4: NOSTRIN, Q8IVI9 (peptide)
chain: SNAGNTATKA
B5: SAPCD1, Q5SSQ6 (peptide)
chain: TKGPRGPTRV
B6: SLC45A4, Q5BKX6 (peptide)
chain: QGPVETESVV

What was measured:
Assay in all cases: holdup assay
Set-up in all cases: key: below the threshold = too weak to quantify, mostly under pKd 3.1 to 4
Settings in all cases: plain residues with an end cap or a label only (N-terminal biotin on a linker: ado-ado)
[1] = biological target: FRMPD4, Q14CM0
[2] = biological target: T1, MPP2, Q14168
T1 sequence (Q14168 180-250, limits assumed, looked up): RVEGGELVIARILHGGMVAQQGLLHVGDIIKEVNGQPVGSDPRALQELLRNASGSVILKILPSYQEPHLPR

[3] = biological target: T2, NHERF3_1, Q5T2W1
T2 sequence (Q5T2W1 4-100, limits assumed, looked up): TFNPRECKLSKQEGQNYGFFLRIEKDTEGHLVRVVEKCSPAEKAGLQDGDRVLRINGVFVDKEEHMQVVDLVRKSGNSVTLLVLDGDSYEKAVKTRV

[4] = biological target: DLG1_1, Q12959
[5] = biological target: Inadl_2, Q8NI35
[6] = biological target: LAP2, Q96RT1
[7] = biological target: T3, GRIP1_5, Q9Y3R0
T3 sequence (Q9Y3R0 568-668, limits assumed, looked up): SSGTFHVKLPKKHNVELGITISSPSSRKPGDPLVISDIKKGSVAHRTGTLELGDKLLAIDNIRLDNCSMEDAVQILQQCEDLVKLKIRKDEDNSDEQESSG

[8] = biological target: IL16_3, Q14005
[9] = biological target: NOS1, P29475
[10] = biological target: MAST2, Q6P0Q8
[11] = biological target: T4, LNX2_3, Q8N448
T4 sequence (Q8N448 463-564, limits assumed, looked up): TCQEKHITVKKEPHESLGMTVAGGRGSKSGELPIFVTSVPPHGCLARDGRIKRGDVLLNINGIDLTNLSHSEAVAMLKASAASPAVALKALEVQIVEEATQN

[12] = biological target: PARD3_3, Q8TEW0
[13] = biological target: T5, RADIL, Q96JH8
T5 sequence (Q96JH8 971-1071, limits assumed, looked up): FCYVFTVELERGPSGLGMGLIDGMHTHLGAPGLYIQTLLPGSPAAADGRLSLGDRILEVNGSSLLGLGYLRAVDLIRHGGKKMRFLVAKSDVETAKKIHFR

[14] = biological target: T6, GRIP1_4, Q9Y3R0
T6 sequence (Q9Y3R0 467-571, limits assumed, looked up): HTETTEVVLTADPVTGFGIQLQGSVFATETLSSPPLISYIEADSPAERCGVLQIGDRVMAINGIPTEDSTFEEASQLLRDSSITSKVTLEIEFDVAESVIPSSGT

[15] = biological target: SNX27, Q96L92
[16] = biological target: TJP2_1, Q9UDY2
[17] = biological target: IL16_4, Q14005
[18] = biological target: T7, TIAM2, Q8IVF5
T7 sequence (Q8IVF5 885-986, limits assumed, looked up): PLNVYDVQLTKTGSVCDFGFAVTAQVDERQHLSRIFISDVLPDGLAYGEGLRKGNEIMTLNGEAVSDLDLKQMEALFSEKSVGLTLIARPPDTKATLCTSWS

[19] = biological target: MAGI2_2, Q86UL8
[20] = biological target: T8, LNX2_2, Q8N448
T8 sequence (Q8N448 334-432, limits assumed, looked up): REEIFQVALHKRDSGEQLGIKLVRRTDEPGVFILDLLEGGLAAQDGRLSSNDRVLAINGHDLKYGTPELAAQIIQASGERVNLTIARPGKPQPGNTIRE

[21] = biological target: T9, LIN7B, Q9HAP6
T9 sequence (Q9HAP6 88-185, limits assumed, looked up): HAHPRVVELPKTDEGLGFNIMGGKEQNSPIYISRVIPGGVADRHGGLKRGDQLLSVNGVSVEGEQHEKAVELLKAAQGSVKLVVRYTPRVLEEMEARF

[22] = biological target: T10, ARHGAP21, Q5T5U3
T10 sequence (Q5T5U3 45-169, limits assumed, looked up): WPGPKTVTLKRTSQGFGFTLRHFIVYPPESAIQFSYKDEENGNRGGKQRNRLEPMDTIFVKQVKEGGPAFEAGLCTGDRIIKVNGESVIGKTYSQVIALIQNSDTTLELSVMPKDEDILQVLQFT

[23] = biological target: T11, HTRA3, P83110
T11 sequence (P83110 354-453, limits assumed, looked up): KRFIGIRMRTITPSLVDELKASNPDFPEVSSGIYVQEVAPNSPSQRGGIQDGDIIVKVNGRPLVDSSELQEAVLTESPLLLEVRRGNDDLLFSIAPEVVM

[24] = biological target: GRIP2_5, Q9C0E4
[25] = biological target: T12, DLG3_2, Q92796
T12 sequence (Q92796 221-321, limits assumed, looked up): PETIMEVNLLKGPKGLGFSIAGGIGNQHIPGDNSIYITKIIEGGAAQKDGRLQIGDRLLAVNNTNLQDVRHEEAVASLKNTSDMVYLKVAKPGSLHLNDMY

TJP2_1, Q9UDY2, sequence (Q9UDY2 24-128): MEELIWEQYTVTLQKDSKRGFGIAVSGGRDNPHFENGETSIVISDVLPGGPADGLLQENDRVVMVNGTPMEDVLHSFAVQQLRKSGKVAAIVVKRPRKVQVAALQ
IL16_3, Q14005, sequence (Q14005 1107-1207): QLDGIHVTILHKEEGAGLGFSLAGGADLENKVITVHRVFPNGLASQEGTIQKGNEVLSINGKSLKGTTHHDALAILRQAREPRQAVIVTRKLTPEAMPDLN
LAP2, Q96RT1, sequence (Q96RT1 other isoform, or with tags, fused parts or gaps): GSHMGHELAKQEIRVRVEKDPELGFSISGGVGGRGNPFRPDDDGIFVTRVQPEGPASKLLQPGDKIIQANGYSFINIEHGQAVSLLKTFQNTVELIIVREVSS
NOS1, P29475, sequence (P29475 9-101): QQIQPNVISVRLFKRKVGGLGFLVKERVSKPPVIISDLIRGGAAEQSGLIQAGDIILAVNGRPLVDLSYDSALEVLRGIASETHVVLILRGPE
GRIP2_5, Q9C0E4, sequence (Q9C0E4 544-642): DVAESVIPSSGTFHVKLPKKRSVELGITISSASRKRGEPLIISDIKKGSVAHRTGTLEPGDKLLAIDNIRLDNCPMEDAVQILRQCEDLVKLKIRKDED
MAST2, Q6P0Q8, sequence (Q6P0Q8 1099-1202): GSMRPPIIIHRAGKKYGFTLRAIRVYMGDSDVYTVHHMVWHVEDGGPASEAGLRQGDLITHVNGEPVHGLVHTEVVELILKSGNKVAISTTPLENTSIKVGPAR
IL16_4, Q14005, sequence (Q14005 1229-1329): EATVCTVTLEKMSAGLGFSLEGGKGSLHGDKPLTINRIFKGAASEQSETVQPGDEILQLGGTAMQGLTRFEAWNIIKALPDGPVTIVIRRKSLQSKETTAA
MAGI2_2, Q86UL8, sequence (Q86UL8 410-522): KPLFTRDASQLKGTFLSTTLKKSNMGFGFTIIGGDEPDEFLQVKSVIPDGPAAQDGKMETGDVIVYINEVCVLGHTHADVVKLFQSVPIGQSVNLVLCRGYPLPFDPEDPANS
Inadl_2, Q8NI35, sequence (Q8NI35 238-335): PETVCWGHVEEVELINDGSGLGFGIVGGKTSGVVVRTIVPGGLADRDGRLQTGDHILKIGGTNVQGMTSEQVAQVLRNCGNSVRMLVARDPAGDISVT
PARD3_3, Q8TEW0, sequence (Q8TEW0 582-685): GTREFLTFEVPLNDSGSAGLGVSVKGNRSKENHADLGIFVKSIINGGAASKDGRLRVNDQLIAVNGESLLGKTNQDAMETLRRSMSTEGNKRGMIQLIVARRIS
FRMPD4, Q14CM0, sequence (Q14CM0 67-160): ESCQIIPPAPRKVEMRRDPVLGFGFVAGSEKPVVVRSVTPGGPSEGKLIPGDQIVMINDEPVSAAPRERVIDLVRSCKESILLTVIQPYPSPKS

Binder	pKd [1]	pKd [2]	pKd [3]	pKd [4]	pKd [5]	pKd [6]	pKd [7]	pKd [8]	pKd [9]	pKd [10]	pKd [11]	pKd [12]	pKd [13]	pKd [14]	pKd [15]	pKd [16]	pKd [17]	pKd [18]	pKd [19]	pKd [20]	other results
B1	below the threshold	below the threshold	4.35	below the threshold	below the threshold	below the threshold	below the threshold	below the threshold	below the threshold	3.77	below the threshold	4.04	4.99	below the threshold	4.06	4.84	below the threshold	3.94	3.67	4.98	pKd [21]: below the threshold; pKd [22]: 3.94; pKd [23]: 4.6; pKd [24]: below the threshold; pKd [25]: below the threshold
B2	3.49	below the threshold	3.79	below the threshold	below the threshold	below the threshold	below the threshold	below the threshold	below the threshold	below the threshold	below the threshold	below the threshold	below the threshold	below the threshold	below the threshold	below the threshold	below the threshold	3.94	below the threshold	below the threshold	pKd [21]: 3.74; pKd [22]: below the threshold; pKd [23]: 4.38; pKd [24]: below the threshold; pKd [25]: 4.14
B3	below the threshold	below the threshold	below the threshold	4.92	below the threshold	below the threshold	below the threshold	below the threshold	below the threshold	5.36	below the threshold	below the threshold	4.15	below the threshold	4.35	3.58	below the threshold	below the threshold	5.28	4.63	pKd [21]: below the threshold; pKd [22]: below the threshold; pKd [23]: below the threshold; pKd [24]: below the threshold; pKd [25]: 5.12
B4	below the threshold	below the threshold	below the threshold	below the threshold	below the threshold	below the threshold	below the threshold	below the threshold	below the threshold	3.59	below the threshold	below the threshold	3.57	below the threshold	below the threshold	below the threshold	below the threshold	4.11	3.56	3.56	pKd [21]: 3.74; pKd [22]: below the threshold; pKd [23]: below the threshold; pKd [24]: below the threshold; pKd [25]: 4.25
B5	below the threshold	below the threshold	below the threshold	4.38	below the threshold	3.72	below the threshold	below the threshold	4.2	4.67	below the threshold	below the threshold	3.54	below the threshold	4	3.9	below the threshold	below the threshold	5.42	3.87	pKd [21]: below the threshold; pKd [22]: below the threshold; pKd [23]: below the threshold; pKd [24]: below the threshold; pKd [25]: 4.13
B6	below the threshold	below the threshold	4.01	4.19	below the threshold	3.66	below the threshold	below the threshold	3.85	4.73	below the threshold	3.81	4.05	below the threshold	5.73	below the threshold	below the threshold	below the threshold	3.78	4.31	pKd [21]: below the threshold; pKd [22]: 4.14; pKd [23]: below the threshold; pKd [24]: below the threshold; pKd [25]: 4.47
